From PMC13396810, “HELZ is a RNA-DNA helicase that resolves R loops to facilitate homologous recombination repair”

Assays:
[1] = target: HELZ K674N (insect-purified) (human, UniProt P42694 1-1942, K674N); assay: EMSA; no ATP; 5 nM substrate; comparable to WT; EMSA: 10 mM Tris-HCl pH 7.5, 60 mM KCl, 100 ng/ul BSA, 2 U/ul RNaseIN, 1 mM DTT, 30 min on ice, 5% native TAE gel 4 C; pull-down: 10 mM Tris-HCl pH 7.5, 100 mM; conditions: protein: recombinant; label: Cy5 at 5' end of RNA; 30 bp hybrid S1[16-45] with S2[31-60]; 15 nt 5' RNA overhang; 30 nt 5' and 30 nt 3' DNA overhangs
[2] = target: HELZ WT (insect-purified) (human, UniProt P42694 1-1942); assay: EMSA; no ATP; 5 nM substrate; EMSA: 10 mM Tris-HCl pH 7.5, 60 mM KCl, 100 ng/ul BSA, 2 U/ul RNaseIN, 1 mM DTT, 30 min on ice, 5% native TAE gel 4 C; pull-down: 10 mM Tris-HCl pH 7.5, 100 mM; conditions: protein: recombinant; label: Cy5 at 5' end of RNA; 30 bp hybrid S1[16-45] with S2[31-60]; 15 nt 5' RNA overhang; 30 nt 5' and 30 nt 3' DNA overhangs
HELZ WT (insect-purified), sequence (P42694 whole entry): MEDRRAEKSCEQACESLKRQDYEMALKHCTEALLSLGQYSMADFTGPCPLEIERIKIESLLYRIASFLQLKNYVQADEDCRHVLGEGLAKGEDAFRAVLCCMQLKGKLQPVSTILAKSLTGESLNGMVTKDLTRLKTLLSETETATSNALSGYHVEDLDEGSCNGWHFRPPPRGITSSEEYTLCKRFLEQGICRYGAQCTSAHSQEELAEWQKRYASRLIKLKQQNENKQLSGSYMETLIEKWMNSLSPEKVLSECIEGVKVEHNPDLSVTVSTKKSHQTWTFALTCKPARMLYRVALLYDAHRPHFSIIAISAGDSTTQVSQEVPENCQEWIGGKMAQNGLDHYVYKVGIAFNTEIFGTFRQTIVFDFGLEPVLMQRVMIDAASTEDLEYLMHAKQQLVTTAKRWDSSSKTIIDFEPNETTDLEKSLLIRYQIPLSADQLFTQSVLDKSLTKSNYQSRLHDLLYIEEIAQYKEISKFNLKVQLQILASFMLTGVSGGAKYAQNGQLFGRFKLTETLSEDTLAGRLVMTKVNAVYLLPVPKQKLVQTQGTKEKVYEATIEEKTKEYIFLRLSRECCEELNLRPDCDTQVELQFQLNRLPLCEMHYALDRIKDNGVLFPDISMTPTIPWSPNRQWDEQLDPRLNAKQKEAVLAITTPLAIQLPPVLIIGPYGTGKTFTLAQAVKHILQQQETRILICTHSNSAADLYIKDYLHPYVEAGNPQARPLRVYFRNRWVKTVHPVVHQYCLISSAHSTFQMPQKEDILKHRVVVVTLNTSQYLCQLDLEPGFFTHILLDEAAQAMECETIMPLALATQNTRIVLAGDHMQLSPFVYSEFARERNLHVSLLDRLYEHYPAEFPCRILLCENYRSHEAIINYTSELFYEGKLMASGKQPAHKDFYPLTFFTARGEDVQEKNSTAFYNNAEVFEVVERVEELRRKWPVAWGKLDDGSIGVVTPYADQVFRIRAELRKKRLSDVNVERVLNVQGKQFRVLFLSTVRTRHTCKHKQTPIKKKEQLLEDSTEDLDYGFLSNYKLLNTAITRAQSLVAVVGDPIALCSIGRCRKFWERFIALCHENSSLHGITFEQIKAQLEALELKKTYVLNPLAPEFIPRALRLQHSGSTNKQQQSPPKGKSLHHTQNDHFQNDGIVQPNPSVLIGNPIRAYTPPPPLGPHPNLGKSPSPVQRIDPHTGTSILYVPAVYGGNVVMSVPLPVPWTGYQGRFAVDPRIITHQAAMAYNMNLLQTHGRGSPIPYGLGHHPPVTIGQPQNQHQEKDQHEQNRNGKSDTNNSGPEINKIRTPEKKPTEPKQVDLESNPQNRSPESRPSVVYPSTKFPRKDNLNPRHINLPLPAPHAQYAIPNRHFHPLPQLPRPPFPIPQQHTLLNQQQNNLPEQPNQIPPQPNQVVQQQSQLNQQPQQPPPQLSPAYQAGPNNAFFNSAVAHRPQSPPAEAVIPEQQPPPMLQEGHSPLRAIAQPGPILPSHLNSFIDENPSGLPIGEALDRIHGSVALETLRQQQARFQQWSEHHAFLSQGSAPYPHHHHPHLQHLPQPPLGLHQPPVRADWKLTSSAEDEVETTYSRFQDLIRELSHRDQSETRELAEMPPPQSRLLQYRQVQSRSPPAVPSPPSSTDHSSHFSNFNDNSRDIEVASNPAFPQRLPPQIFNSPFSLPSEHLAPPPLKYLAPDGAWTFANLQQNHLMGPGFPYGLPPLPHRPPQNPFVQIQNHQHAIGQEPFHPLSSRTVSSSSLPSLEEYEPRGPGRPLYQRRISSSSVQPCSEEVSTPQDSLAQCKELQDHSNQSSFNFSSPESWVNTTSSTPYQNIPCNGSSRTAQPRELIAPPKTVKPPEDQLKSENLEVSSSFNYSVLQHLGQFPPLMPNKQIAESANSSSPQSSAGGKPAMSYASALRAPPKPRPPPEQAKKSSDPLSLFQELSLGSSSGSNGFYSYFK

HELZ K674N (insect-purified), sequence (P42694 whole entry K674N): as the sequence (P42694 whole entry) above, with K674N counted along it

B1: RNA/DNA hybrid with 5' ssRNA overhang (EMSA) (DNA:RNA)
RNA: UCGUAGCUCGGGAGUGCACCAGAUUCAGCAAUUAAGCUCUAAGCC
DNA: GTCACTTGATAAGAGGTCATTTGAATTCATGGCTTAGAGCTTAATTGCTGAATCTGGTGCTGGGATCCAACATGTTTTAAATATGCAATG
[1]
  binding result: binds
[2]
  binding result: binds
